Results: publication PMC5385344, “Large Diversity of Functional Nanobodies from a Camelid Immune Library Revealed by an Alternative Analysis of Next-Generation Sequencing Data” (Frontiers in Immunology, 2017)

Experiments:
[1] = molecular target: T1, Recombinant extracellular domain of human RON (rhRON) (human, UniProt Q04912)
[2] = molecular target: full-length human RON expressed on HEK293T cells (HEK293T-hRON) (Homo sapiens, UniProt Q04912)
[3] = molecular target: T2, RON endogenously expressed on T-47D human breast cancer cells (Homo sapiens (T-47D cell line), UniProt Q04912); assay: cell-based or functional assay
T2 sequence (Q04912 25-1400): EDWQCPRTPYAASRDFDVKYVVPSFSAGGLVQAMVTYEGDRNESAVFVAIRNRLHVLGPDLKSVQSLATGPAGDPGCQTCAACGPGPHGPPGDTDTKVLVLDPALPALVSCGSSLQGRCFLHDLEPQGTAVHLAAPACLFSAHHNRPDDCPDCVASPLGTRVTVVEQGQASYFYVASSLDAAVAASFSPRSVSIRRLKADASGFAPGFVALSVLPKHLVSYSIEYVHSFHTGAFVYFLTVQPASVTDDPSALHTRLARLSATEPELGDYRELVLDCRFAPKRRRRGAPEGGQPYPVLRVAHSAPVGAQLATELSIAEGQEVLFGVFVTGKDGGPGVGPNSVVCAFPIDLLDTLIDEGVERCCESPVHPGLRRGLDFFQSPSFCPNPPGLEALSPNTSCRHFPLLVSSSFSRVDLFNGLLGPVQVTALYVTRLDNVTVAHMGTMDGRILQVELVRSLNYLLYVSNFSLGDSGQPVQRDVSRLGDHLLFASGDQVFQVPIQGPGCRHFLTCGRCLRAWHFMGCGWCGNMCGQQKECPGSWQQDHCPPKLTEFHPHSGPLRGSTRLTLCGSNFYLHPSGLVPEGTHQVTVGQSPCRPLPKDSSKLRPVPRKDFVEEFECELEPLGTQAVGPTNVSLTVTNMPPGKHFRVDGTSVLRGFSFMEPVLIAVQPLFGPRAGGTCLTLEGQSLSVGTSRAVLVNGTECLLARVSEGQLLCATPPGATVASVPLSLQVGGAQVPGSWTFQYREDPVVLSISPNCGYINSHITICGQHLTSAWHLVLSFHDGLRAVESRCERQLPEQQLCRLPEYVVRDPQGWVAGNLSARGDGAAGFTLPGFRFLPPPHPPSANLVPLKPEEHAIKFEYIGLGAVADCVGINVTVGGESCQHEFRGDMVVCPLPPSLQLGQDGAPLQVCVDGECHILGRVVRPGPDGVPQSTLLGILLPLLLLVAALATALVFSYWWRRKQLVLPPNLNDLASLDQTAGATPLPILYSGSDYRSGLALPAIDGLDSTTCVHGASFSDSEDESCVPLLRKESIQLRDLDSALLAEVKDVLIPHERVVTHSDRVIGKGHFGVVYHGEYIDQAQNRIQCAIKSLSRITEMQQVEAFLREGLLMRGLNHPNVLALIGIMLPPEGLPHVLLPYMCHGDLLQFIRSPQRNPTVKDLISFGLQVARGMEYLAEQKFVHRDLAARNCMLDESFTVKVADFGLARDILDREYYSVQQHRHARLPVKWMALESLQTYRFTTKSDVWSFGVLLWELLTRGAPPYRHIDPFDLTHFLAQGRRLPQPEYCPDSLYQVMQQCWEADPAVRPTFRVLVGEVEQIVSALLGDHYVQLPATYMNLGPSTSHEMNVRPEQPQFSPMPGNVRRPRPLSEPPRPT

[4] = molecular target: T1, Recombinant extracellular domain of …; assay: SPR; ProteOn; rhRON immobilised on GLC chip; 1/10 diluted crude periplasmic extracts injected 2 min at 45 µl/min; Langmuir model, off-rate only; settings: one partner purified
[5] = molecular target: T2, RON endogenously expressed on T-47D …; assay: flow cytometry on cells; dilution series of purified nanobodies starting at 500 nM on T-47D cells endogenously expressing RON; anti-FLAG then anti-mouse APC; settings: one partner purified
[6] = molecular target: T1, Recombinant extracellular domain of …; assay: ELISA; ligand competition: rhRON (1 µg/ml) immobilised directly; dilution series of purified nanobodies starting at 1 µM added together with 2 nM biotinylated MSP; MSP detected by extravidin peroxidase; settings: both partners purified

T1 sequence (Q04912 25-957): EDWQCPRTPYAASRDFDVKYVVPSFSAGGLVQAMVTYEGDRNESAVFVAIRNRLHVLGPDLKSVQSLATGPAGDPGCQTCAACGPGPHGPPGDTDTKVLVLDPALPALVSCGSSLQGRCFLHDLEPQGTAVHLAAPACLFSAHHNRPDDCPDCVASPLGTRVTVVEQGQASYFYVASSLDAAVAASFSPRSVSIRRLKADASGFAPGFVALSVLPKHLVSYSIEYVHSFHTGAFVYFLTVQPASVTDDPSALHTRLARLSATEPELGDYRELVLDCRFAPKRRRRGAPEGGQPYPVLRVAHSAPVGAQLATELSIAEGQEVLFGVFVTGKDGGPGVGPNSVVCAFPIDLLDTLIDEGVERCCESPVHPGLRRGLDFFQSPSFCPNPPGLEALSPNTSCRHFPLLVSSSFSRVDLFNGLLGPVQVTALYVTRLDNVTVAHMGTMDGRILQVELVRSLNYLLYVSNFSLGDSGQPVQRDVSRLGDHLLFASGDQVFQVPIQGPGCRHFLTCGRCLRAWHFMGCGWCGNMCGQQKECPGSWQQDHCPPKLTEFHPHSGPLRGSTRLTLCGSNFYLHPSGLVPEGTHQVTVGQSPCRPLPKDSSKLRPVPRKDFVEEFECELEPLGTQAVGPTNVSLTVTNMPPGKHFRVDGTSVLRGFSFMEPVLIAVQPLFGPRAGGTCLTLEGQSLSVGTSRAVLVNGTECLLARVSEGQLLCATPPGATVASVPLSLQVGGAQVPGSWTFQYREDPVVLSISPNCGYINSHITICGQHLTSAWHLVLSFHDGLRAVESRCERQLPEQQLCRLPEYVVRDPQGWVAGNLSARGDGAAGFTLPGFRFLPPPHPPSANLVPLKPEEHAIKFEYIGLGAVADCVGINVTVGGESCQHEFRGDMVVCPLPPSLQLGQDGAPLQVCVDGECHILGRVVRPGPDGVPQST
Chain of full-length human RON expressed on HEK293T cells (HEK293T-hRON) (Q04912 25-1400): as the sequence (Q04912 25-1400) above

Binder	binding result [1]	binding result [2]	IC50 (M) inhibition of ERK phosphorylation induced by 1 nM MSP through RON on T-47D cells; purified nanobody, HTRF phospho-ERK [3] [M]	maximum inhibition (efficacy) of MSP-induced ERK phosphorylation in T-47D cells [3] [%]	koff [4] [s⁻¹]	EC50 [5] [nM]	IC50 [6] [nM]	maximum inhibition of MSP binding [6] [%]
KY704048 (VHH) VHH: EVQLVESGGGLVQAGGSLRLSCAASGDTFSTYGMGWFRQAPGKEREIVARITWNRRTYYADSVKGRFTISRDNAKNAAYLEMNSLKPEDTAVYMCAAVRGDNLFHTRPRDYDYWGQGTLVTVSS	binds	binds	–	–	–	–	–	–
KY704050 (VHH) VHH: EVQLVESGGGLVQAGGSLRLSCVASGRTLSSYTMGWFRQAPGKEREFLALITWSGGSTHYADSVKGRFTISRDNPKNTAYLQMGSLKPEDTAVYFCAARFRGVIATMARDYDYWGQGTLVTVSS	binds	binds	–	–	–	–	–	–
KY704047 (VHH) VHH: EVQLVESGGGLVQAGGSLRLSCAASGIPFSRYHMGWFRQAPGKEREFVASVSWSGQNTYYADSVKGRFTISRDNAKNTGNLQMNSMKPEDTAVYYCAAGSRYYTDIIPNYYRYWGQGTLVTVSS	binds	binds	–	–	–	–	–	–
KY704062 (VHH) VHH: EVQLVESGGGLVQAGGSLRLSCAASGLAFSSYAAGWFRQAPGKEREFLAVISRGGGTTYYANFVKGRFSISRDNAENTVYLQMNSLKPEDTAVYYCGADTYFGRLVSDPITSDYWGQGTLVTVSS	binds	binds	–	–	–	–	–	–
KY704058 (VHH) VHH: EVQLVESGGGLVQAGDSLRLSCAASGGTLNGYAMAWFRQAPGKERDVVATINWSGSWKYYADSVKGRFTISRDNAKGTVYLQMNSLKPEDTAVYRCAARRGGGNYYTRAVDFDYWGQGTLVTVSS	binds	binds	–	–	–	–	–	–
KY704060 (VHH) VHH: EVQLVESGGGLVQSGDSLRLSCAASGRSFSRSTMGWFRQAPEKEREFVAVISWAGTTTYYHDSVKGRFTISRDNAKNTVYLQMNSLKPEDTAVYYCAGGRDARILRNARDYDYWGQGTLVTVSS	binds	binds	–	–	–	–	–	–
KY704059 (VHH) VHH: EVQLVESGGGLVQAGGSLRLSCTASGRSFSRYTMGWFRQAAGKERVFVAHIAWSGGTRYYADSVKGRFTISRDNAKNTVWLQMNSLKPEDTAVYYCAATSQTGLIVVNTRDYEIWGQGTLVTVSS	binds	binds	–	–	–	–	–	–
KY704043 (VHH) VHH: EVQLVESGGGLVQAGGSLRLSCVASGRAYRNYVMGWFRQGPGKEREFVATIRPDDGSILSSNSVRGRITISSDNAKNTVYLQMSTLAPEDTAIYYCAYGTTPSMLARKYDYWGQGTLVTVSS	binds	binds	–	–	–	–	–	–
KY704052 (VHH) VHH: EVQLVESGGGLVQAGGSLRLSCAASGRTFSDYSMGWFRQAPGKEREPVAAVSRSGDDLMYENSLKGRFAISRDNAKNTVYLQMNSLKPEDTAVYYCAASTRFITALAANYDYWGQGTLVTVSS	binds	binds	–	–	–	–	–	–
KY704053 (VHH) VHH: EVQLVESGGGLVQAGDSLRLSCAASGRTFSIYSMGWFRQATGKEREFVAAIRWSGTRTYYADSVKGRFTISGDIAKNTVYLQMNNLKPEDTAVYSCAAGGSRGYVAAPDRWDYWGQGTLVTVSS	binds	binds	–	–	–	–	–	–

Results, then the binder that gave them:

binding result [1]	binding result [2]	IC50 (M) inhibition of ERK phosphorylation induced by 1 nM MSP through RON on T-47D cells; purified nanobody, HTRF phospho-ERK [3] [M]	maximum inhibition (efficacy) of MSP-induced ERK phosphorylation in T-47D cells [3] [%]	koff [4] [s⁻¹]	EC50 [5] [nM]	IC50 [6] [nM]	maximum inhibition of MSP binding [6] [%]	Binder
–	–	1.8e-08	100	0.005	5	–	–	nanobody 2D07 (VHH, From a llama immunised with rhRON; found by conventional screening and by NGS; source: E. coli, crude periplasmic extract; E. coli, purified; not shown: FLAG3, C-terminal, kept) VHH: EVQLVESGGGLVQPGGSLRLSCAASGFTFRAYNMNWLRQAPGKGLEWVSVISGGGGGTLYADSVKGRFTISRDNAKNTLYLQMNSLKPEDTAVYYCAGSDFFADYGRPRHEYRYWGQGTQVTVSS
–	–	8.2e-08	98	0.00097	34	240	92	nanobody 8G11 (VHH, From a llama immunised with rhRON; found by conventional screening and by NGS; source: E. coli, crude periplasmic extract; E. coli, purified; not shown: FLAG3, C-terminal, kept) VHH: EVQLVESGGGLVQAGGSLRLSCAASGGIFDNYAMGWIRQAPGKEREFVAGIRWSESSTYYAASVKGRFTISRDNAKNTVYLQMNSLKPEDTAVYSCAAWFWISSTWSYFSENEPNYRGPGTLVTVSS
–	–	4.9e-09	100	0.00029	0.33	–	–	nanobody 5G04 (VHH, From a llama immunised with rhRON; found by conventional screening and by NGS; source: E. coli, crude periplasmic extract; E. coli, purified; not shown: FLAG3, C-terminal, kept) VHH: EVQLVESGGALVQAGDSLRVSCVASGRTFSHYAMGWFRQAPGKQREFVAAISWDGDSTSYANSLKGRFTISRDNAKNTGYLYMNSLIPEDTAVYYCAAGPNFSTLARRYDYWGQGTLVTVSS
–	–	9.6e-08	96	0.0018	1.3	–	–	nanobody 2B09 (VHH, From a llama immunised with rhRON; found by conventional screening and by NGS; source: E. coli, crude periplasmic extract; E. coli, purified; not shown: FLAG3, C-terminal, kept) VHH: EVQLVESGGGLVQPGGSLRLSCAASGFSLDNYGIGWFRQAPGKEREGVSYISSTSLTRYYAASVKGRFTISRDNSKNTVYLQMNSLNPEDTAVYYCASTDRWPGIEWYRGEYDNWGQGTQVTVSS
binds	binds	–	–	–	–	–	–	KY704045 (VHH) VHH: EVQLVESGGGLVQAGGSLRLSCAASGRTFSSYIMAWFRQAPGKERDVVATVSWGGETTYYADSVKGRFTISRDNAKNTVYLQMNSLKPEDTAVYYCAASHARGYWHTPFTVADVGSWGQGTLVTVSS
–	–	3.3e-08	100	0.0023	170	47	90	nanobody 8C09 (VHH, From a llama immunised with rhRON; found by conventional screening and by NGS; source: E. coli, crude periplasmic extract; E. coli, purified; not shown: FLAG3, C-terminal, kept) VHH: EVQLVESGGGLVQAGGSLRLACAASGRISSTYRMGWFRQAPGKEREFVAASRWSGGGVLYTDSVKGRFTISTDNGKNMVYLQMNSLRPEDTAVYYCAGRNYGTTEYGYWGQGTQVTVSS
binds	binds	–	–	–	–	–	–	KY704061 (VHH) VHH: EVQLVESGGGLVQAGGSLRLSCAASGRTFSNDAMGWFRQAPGKERAFVGVINWNGVTTRYTDSVEGRFTISRDNAKNTVYLQMNSLKPEDTAVYFCAAGGGPVAVSSGRSAYWGQGTLVTVSS
–	–	1.5e-08	100	0.00051	0.061	11	98	nanobody 8D12 (VHH, From a llama immunised with rhRON; found by conventional screening and by NGS; source: E. coli, crude periplasmic extract; E. coli, purified; not shown: FLAG3, C-terminal, kept) VHH: EVQLVESGGGLVQAGGSLRLSCAASGRYAMGWFRQAPGKEREFVGVISKSGGSTYIADSVKGRFTISRHNAKSTAYLQMNNLRPEDTAVYYCAANGFLGTSGRRVDQYDYWGQGTQVTVSS
binds	binds	–	–	–	–	–	–	KY704055 (VHH) VHH: EVQLVESGGGVVQAGGSLRLSCAASGRYGVGWFRQPPGKEREFVSAVSKSGGSTYYEDSVKGRFTISRDGAKNTVYLQMNSLKPEDTAVYYCAADGGGYSAYYYYTHQTEYEYWGQGTLVTVSS
–	–	4.9e-09	100	0.00062	0.093	16	98	nanobody 8A09 (VHH, From a llama immunised with rhRON; found by conventional screening and by NGS; source: E. coli, crude periplasmic extract; E. coli, purified; not shown: FLAG3, C-terminal, kept) VHH: EVQLVKSGGGLVQAGGSLRLSCAASGRVAMGWFRQPPGKEREFVAAISASGATKYYADSVKGRFTIFRDNANTTVYLQMNSLKPEDTAVYYCAARLRWDSDYTSGGRYDYWGQGTQVTVSS
binds	binds	–	–	–	–	–	–	KY704054 (VHH) VHH: EVQLVESGGGLVQTGGSLRLSCAASGIYFRLYTMGWYRQAPGNQRELVALITSTRSTHYADSVKGRFTISRDNAKNTLYLQMNSLKPEDTAVYYCNAHNGQGDFWGQGTLVTVSS
binds	binds	–	–	–	–	–	–	KY704049 (VHH) VHH: EVQLVESGGGVVQTGGSLRLSCAASGRYAMGWFRQVSGKEREFVAFISASGGSTYYADSVKGRFTISRDNAKTTLAYLQMISLKPEDTAVYYCATSGGIFRGLYYDTRNYNYWGQGTLVTVSS
binds	binds	–	–	–	–	–	–	KY704056 (VHH) VHH: EVQLVESGGGLVQAGGSLRLSCAASGRYVMGWFRQAPGKEREFVAAITRSGATTNYADSVKGRFTISRDSAKITVYLQMDSLKPEDTAVYYCAASGRYYTAAVEGANYDYWGQGTLVTVSS
binds	binds	–	–	–	–	–	–	KY704044 (VHH) VHH: EVQLVESGGGLVQAGGSLRLSCAASGRTSSIYRMGWFRQAPGKERDIVASIHWSGGRWFYADFVKGRFTISRDNAENTVYLQMSSLKPEDTAVYYCAARTPGTLTYDYWGQGTLVTVSS
